Numbering of substitutions follows the chain as printed. Numbers in names are those of the source.
T1: pIRSp53FS (human (from the printed UniProt entry), UniProt Q9UQB8-4 1-521, S519C, natively phosphorylated in HEK293T cells; fluorescein maleimide / rhodamine maleimide on C230 and C519)
T1 construct: IRSp53 (BAIAP2), isoform-4, UniProt Q9UQB8-4, full length, S519C; Expressed and purified as m4; also called IRSp53 FRET sensor; phosphorylated IRSp53 (mutant S519C)
T1 sequence (looked up): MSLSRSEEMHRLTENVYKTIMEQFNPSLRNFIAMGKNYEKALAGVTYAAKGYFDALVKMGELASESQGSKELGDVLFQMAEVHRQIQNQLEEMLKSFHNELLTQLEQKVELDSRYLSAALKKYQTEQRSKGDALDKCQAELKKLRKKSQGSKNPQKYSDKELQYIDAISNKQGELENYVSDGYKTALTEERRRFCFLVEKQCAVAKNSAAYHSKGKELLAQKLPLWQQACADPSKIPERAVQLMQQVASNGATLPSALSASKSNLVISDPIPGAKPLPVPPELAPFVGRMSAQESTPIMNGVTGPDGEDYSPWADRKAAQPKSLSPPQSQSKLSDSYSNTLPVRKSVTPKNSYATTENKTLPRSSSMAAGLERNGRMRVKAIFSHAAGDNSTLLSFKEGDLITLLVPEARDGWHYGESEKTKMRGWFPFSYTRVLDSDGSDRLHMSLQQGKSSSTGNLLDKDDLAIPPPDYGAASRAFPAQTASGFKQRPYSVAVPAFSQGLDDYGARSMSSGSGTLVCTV

T2: pM234FS (human (from the printed UniProt entry), UniProt Q9UQB8-4 1-521, T340A | T360A | S366A | S519C, fluorescein / rhodamine labels as in pIRSp53FS (C230 and C519))
T2 construct: IRSp53 (BAIAP2), isoform-4, UniProt Q9UQB8-4, full length, FRET sensor (S519C) with T340A/T360A/S366A; also called modified FRET sensor T340A/T360A/S366A; source: serum-starved HEK293T, purified, labelled
T2 sequence (looked up): T1 sequence (looked up) with T340A, T360A, S366A

B1: IRSp53-FLAG (wild type), natively phosphorylated (natural protein, human (from the printed UniProt entry), UniProt Q9UQB8-4 1-521, looked up)
chain: T1 sequence (looked up) with C519S
modifications: phosphorylated in HEK293T cells at S325, T340, T360, S366 and a residue within 452SSST455, most likely S454 (mass spectrometry of the purified 14-3-3-binding-competent fraction)
notes: also called pIRSp53; WT IRSp53-FLAG; source: HEK293T, transfected, in lysate; not shown: FLAG, C-terminal, kept
B2: 14-3-3θ (natural protein, human)
chain: MEKTELIQKAKLAEQAERYDDMATCMKAVTEQGAELSNEERNLLSVAYKNVVGGRRSAWRVISSIEQKTDTSDKKLQLIKDYREKVESELRSICTTVLELLDKYLIANATNPESKVFYLKMKGDYFRYLAEVACGDDRKQTIDNSQGAYQEAFDISKKEMQPTHPIRLGLALNFSVFYYEILNNPELACTLAKTAFDEAIAELDTLNEDSYKDSTLIMQLLRDNLTLWTSDSAGEECDAAEGAEN
notes: 14-3-3θ, human, UniProt P27348; also called 14-3-3 theta; 14-3-3τ
B3: GMPPNP-Cdc42 (constitutively active mutant G12V) (domain or fragment)
chain: not shown
notes: Cdc42, human, residues 1-178, G12V; Loaded with GMPPNP; also called GNPPNP-Cdc42 (G12V mutant); source: E. coli BL21(DE3), purified

Experiments:
[1] = molecular target: T3, 2xFLAG-Eps8 (human, UniProt Q12929 1-822); test: pull-down; anti-Flag magnetic beads with or without the FLAG-Eps8/pIRSp53 complex; 14-3-3θ detected; conditions: both partners purified
T3 construct: Eps8, human, UniProt Q12929, full length; also called FLAG-tagged Eps8

[2] = molecular target: T4, FLAG-Eps8/pIRSp53 complex (human | human (from the printed UniProt …, UniProt Q12929 1-822)); Q9UQB8-4 1-521, natively phosphorylated in HEK293T cells (as m4)); test: as above; conditions: both partners purified
T4 construct: Eps8, human, UniProt Q12929, full length; IRSp53 (BAIAP2), isoform-4, UniProt Q9UQB8-4, full length; source: formed from purified 2xFLAG-Eps8 (HEK293T) and purified pIRSp53 (serum-starved HEK293T)

[3] = molecular target: T1, pIRSp53FS; test: other fluorescence titration; intramolecular FRET sensor (fluorescein/rhodamine on C230 and C519 of IRSp53); Cdc42, Eps8 and/or 14-3-3θ titrated into the sensor, also back to back; 20 °C; 25 mM Tris-HCl pH 7.5, 150 mM NaCl, 1 mM MgCl2, 5% glycerol, 0.1 mM TCEP; observed Kd (Kobs) from the fits; conditions: both partners purified
[4] = molecular target: the molecule itself; test: crystal structure; 14-3-3θ pre-incubated with singly (2.5:1) or doubly (0.6:1) phosphorylated IRSp53 peptides; hanging drop, 18 °C; resolution 2.0 to 2.9 Å
[5] = molecular target: T2, pM234FS; test: other fluorescence titration; intramolecular FRET sensor (fluorescein/rhodamine on C230 and C519 of IRSp53); Cdc42, Eps8 and/or 14-3-3θ titrated into the sensor, also back to back; 20 °C; 25 mM Tris-HCl pH 7.5, 150 mM NaCl, 1 mM MgCl2, 5% glycerol, 0.1 mM TCEP; observed Kd (Kobs) from the fits; conditions: both partners purified

T4 sequence (Q12929 whole entry, canonical isoform, one chain of several): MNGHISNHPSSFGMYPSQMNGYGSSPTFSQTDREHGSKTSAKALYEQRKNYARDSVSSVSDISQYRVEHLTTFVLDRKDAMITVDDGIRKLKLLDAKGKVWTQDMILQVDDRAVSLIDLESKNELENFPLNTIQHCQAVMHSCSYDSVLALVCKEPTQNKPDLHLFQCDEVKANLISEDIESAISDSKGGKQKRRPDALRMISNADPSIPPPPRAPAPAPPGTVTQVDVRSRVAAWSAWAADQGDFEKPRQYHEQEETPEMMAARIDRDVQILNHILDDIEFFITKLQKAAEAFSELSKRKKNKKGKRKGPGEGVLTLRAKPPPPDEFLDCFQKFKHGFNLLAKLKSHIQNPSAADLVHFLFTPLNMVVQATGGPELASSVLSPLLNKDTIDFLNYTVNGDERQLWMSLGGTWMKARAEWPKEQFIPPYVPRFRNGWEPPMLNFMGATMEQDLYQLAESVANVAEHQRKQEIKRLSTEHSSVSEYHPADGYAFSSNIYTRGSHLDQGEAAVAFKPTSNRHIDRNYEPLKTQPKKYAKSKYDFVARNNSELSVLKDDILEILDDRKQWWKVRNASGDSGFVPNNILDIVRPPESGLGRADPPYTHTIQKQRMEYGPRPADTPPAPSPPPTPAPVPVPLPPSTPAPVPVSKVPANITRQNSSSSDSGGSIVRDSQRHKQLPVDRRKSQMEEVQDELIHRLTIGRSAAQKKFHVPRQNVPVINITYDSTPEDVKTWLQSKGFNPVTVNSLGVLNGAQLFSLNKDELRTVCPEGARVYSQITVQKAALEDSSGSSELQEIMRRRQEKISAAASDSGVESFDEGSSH
T3 sequence (Q12929 whole entry): as the sequence (Q12929 whole entry, canonical isoform, one chain of several) above

| Binder | binding result [1] | binding result [2] | Kd [3] [µM] | binding result [4] | binding result [5] |
| --- | --- | --- | --- | --- | --- |
| B1 | binds | – | – | – | – |
| B2 | – | binds | 0.079 | binds | – |
| B3 | – | – | 19.1 | – | binds |
